Laboratory results taken from PMC11111093.

Target: HA-ADAP (UniProt O15117)
Assay: co-IP; HEK293T co-transfected with HA-ADAP and Flag-RIG-I or Flag-tagged RIG-I truncations, lysates 48 h after transfection; anti-HA immunoprecipitation, anti-Flag blot

UniProt O15117, sequence (O15117 whole entry, the tested form may be a part): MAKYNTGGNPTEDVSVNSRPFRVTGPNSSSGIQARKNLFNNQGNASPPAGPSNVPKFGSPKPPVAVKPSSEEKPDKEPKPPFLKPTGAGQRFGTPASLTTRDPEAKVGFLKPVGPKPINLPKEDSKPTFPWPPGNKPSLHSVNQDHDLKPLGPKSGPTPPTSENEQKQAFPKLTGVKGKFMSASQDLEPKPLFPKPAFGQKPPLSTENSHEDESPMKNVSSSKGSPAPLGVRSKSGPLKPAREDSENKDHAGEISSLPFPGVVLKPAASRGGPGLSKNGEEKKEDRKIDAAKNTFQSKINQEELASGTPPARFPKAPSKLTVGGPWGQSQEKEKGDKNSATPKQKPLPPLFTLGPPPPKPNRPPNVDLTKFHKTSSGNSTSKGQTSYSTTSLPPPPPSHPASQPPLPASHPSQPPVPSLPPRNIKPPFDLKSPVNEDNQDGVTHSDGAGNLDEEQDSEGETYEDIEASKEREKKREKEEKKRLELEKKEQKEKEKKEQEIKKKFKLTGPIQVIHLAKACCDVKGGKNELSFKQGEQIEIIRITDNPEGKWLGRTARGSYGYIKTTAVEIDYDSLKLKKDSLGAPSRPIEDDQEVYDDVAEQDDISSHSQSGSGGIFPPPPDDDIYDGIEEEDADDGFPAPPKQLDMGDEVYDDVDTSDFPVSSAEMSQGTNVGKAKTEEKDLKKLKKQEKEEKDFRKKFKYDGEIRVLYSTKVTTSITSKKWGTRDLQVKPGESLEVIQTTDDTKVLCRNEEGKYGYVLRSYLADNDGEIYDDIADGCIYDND

**Q.** For “Flag-RIG-I helicase domain (aa 239-734) (from UniProt O95786 239-734) (domain or fragment)”, which percent decrease in binding compared to wild-type RIG-I is on record?
**A.** 60%
